The subject of this data set is Escherichia coli TOP10. The experiment in a line: shrunken log2 fold change of peptide-encoding DNA abundance (4.5 h post-induction vs induction); higher = less antimicrobial activity (less host growth inhibition). The note with it: time post-induction: 4.5 h; library: site-saturation at positions 5, 18, 19, 20.
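Further: peptides expressed intracellularly from a pBAD plasmid library in pooled LB shake-flask culture, induced with 0.3% L-arabinose, DNA abundance read by NGS, three biological replicates, DESeq2 with apeglm shrinkage.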

Consider RRIRRRPPRLPRPRPRPAFDPRP, for which the “shrunken log2 fold change” value was 0.522.

Turning to RRIRKRPPRLPRPRPRPLDNPRP, the “shrunken log2 fold change” value was 0.0829.

In the case of RRIRNRPPRLPRPRPRPRACPRP, the “shrunken log2 fold change” value is -0.0233.

With RRIRWRPPRLPRPRPRPWGNPRP, the “shrunken log2 fold change” value was 0.149.

Take RRIRSRPPRLPRPRPRPGATPRP: the “shrunken log2 fold change” value stood at 0.584.

For the sequence RRIRTRPPRLPRPRPRPDFLPRP, the “shrunken log2 fold change” value was -0.169.

RRIRMRPPRLPRPRPRPMYWPRP: the “shrunken log2 fold change” value is -0.169.

Turning to RRIRVRPPRLPRPRPRPHSDPRP, the “shrunken log2 fold change” value was determined as 0.0538.

For RRIRRRPPRLPRPRPRPQLAPRP, the “shrunken log2 fold change” value is -0.0216.

Regarding RRIRRRPPRLPRPRPRPPWMPRP, the “shrunken log2 fold change” value was determined as 0.269.

For RRIRRRPPRLPRPRPRPPERPRP, the “shrunken log2 fold change” value was found to be 0.643.

As for RRIRCRPPRLPRPRPRPMTWPRP, the “shrunken log2 fold change” value is -0.383.

In the case of RRIRCRPPRLPRPRPRPMYRPRP, the “shrunken log2 fold change” value was -0.319.

RRIRQRPPRLPRPRPRPDTFPRP: the “shrunken log2 fold change” value is -0.00762.

RRIRIRPPRLPRPRPRPMLEPRP: the “shrunken log2 fold change” value turned out to be 0.0741.

As for RRIRCRPPRLPRPRPRPYDYPRP, the “shrunken log2 fold change” value is -0.27.

As for RRIRSRPPRLPRPRPRPLWGPRP, the “shrunken log2 fold change” value is -0.00343.

Consider RRIRWRPPRLPRPRPRPIQQPRP, for which the “shrunken log2 fold change” value is 0.0331.

As for RRIRFRPPRLPRPRPRPMKNPRP, the “shrunken log2 fold change” value was -0.0862.

As for RRIRKRPPRLPRPRPRPDSMPRP, the “shrunken log2 fold change” value stood at 0.0692.

Turning to RRIRFRPPRLPRPRPRPKVIPRP, the “shrunken log2 fold change” value is -0.212.

With RRIRKRPPRLPRPRPRPEMSPRP, the “shrunken log2 fold change” value stood at 0.325.

As to RRIRLRPPRLPRPRPRPKDFPRP, the “shrunken log2 fold change” value worked out at 0.0642.

Take RRIRSRPPRLPRPRPRPEAQPRP: the “shrunken log2 fold change” value was found to be 0.438.

RRIRARPPRLPRPRPRPNQWPRP: the “shrunken log2 fold change” value turned out to be 0.724.

Regarding RRIRARPPRLPRPRPRPRSRPRP, the “shrunken log2 fold change” value was found to be 0.757.

RRIRHRPPRLPRPRPRPILEPRP: the “shrunken log2 fold change” value turned out to be 0.077.

With RRIRHRPPRLPRPRPRPNSEPRP, the “shrunken log2 fold change” value is -0.795.

As to RRIRKRPPRLPRPRPRPWKIPRP, the “shrunken log2 fold change” value is -0.00192.

RRIRSRPPRLPRPRPRPGCYPRP: the “shrunken log2 fold change” value was -0.173.

As for RRIRNRPPRLPRPRPRPDYAPRP, the “shrunken log2 fold change” value was -0.0367.

In the case of RRIRSRPPRLPRPRPRPTFYPRP, the “shrunken log2 fold change” value was -0.231.

With RRIRPRPPRLPRPRPRPILLPRP, the “shrunken log2 fold change” value was -0.526.

As for RRIRARPPRLPRPRPRPPLQPRP, the “shrunken log2 fold change” value came out at 0.557.

RRIRDRPPRLPRPRPRPLIPPRP: the “shrunken log2 fold change” value is -0.516.

As for RRIRVRPPRLPRPRPRPMDMPRP, the “shrunken log2 fold change” value is -0.946.

Consider RRIRGRPPRLPRPRPRPVGIPRP, for which the “shrunken log2 fold change” value turned out to be 0.414.

Consider RRIRWRPPRLPRPRPRPRNYPRP, for which the “shrunken log2 fold change” value was -0.169.

Consider RRIRPRPPRLPRPRPRPCIMPRP, for which the “shrunken log2 fold change” value is -1.1.

On to RRIRCRPPRLPRPRPRPPKVPRP, for which the “shrunken log2 fold change” value was -0.138.

As for RRIRCRPPRLPRPRPRPSACPRP, the “shrunken log2 fold change” value is -0.0897.

Take RRIRHRPPRLPRPRPRPCWKPRP: the “shrunken log2 fold change” value was -0.119.

As to RRIRFRPPRLPRPRPRPGVSPRP, the “shrunken log2 fold change” value worked out at 0.323.

For RRIRWRPPRLPRPRPRPIQAPRP, the “shrunken log2 fold change” value is -0.0237.

Consider RRIRPRPPRLPRPRPRPQWMPRP, for which the “shrunken log2 fold change” value turned out to be 0.00643.

With RRIRIRPPRLPRPRPRPHTCPRP, the “shrunken log2 fold change” value is -0.0906.

RRIRGRPPRLPRPRPRPHLEPRP: the “shrunken log2 fold change” value was 0.381.

Consider RRIRLRPPRLPRPRPRPQSHPRP, for which the “shrunken log2 fold change” value is -0.349.

Turning to RRIRTRPPRLPRPRPRPMQRPRP, the “shrunken log2 fold change” value was -0.0122.

Regarding RRIRVRPPRLPRPRPRPPRSPRP, the “shrunken log2 fold change” value was found to be 0.37.

On to RRIRMRPPRLPRPRPRPDSVPRP, for which the “shrunken log2 fold change” value was -0.045.

Take RRIRCRPPRLPRPRPRPYFVPRP: the “shrunken log2 fold change” value is -1.13.

In the case of RRIRRRPPRLPRPRPRPWDYPRP, the “shrunken log2 fold change” value is 0.0184.

On to RRIRMRPPRLPRPRPRPLMDPRP, for which the “shrunken log2 fold change” value came to 1.24.

On to RRIRNRPPRLPRPRPRPFQWPRP, for which the “shrunken log2 fold change” value is -0.212.

For RRIRGRPPRLPRPRPRPQYQPRP, the “shrunken log2 fold change” value was -0.191.

For RRIRNRPPRLPRPRPRPVILPRP, the “shrunken log2 fold change” value is -0.61.

Consider RRIRSRPPRLPRPRPRPPITPRP, for which the “shrunken log2 fold change” value was -0.177.

For the sequence RRIRERPPRLPRPRPRPMPHPRP, the “shrunken log2 fold change” value is -0.083.

In the case of RRIRQRPPRLPRPRPRPGIDPRP, the “shrunken log2 fold change” value was found to be 0.0179.

Consider RRIRSRPPRLPRPRPRPAKAPRP, for which the “shrunken log2 fold change” value was found to be 0.000841.

As to RRIRSRPPRLPRPRPRPGLFPRP, the “shrunken log2 fold change” value stood at 0.163.

RRIRRRPPRLPRPRPRPAKAPRP: the “shrunken log2 fold change” value was found to be 0.12.

As for RRIRERPPRLPRPRPRPDMVPRP, the “shrunken log2 fold change” value was determined as 0.0162.

Take RRIRNRPPRLPRPRPRPSWSPRP: the “shrunken log2 fold change” value was -0.0724.

As for RRIRCRPPRLPRPRPRPFPCPRP, the “shrunken log2 fold change” value is -0.367.

Consider RRIRMRPPRLPRPRPRPDPPPRP, for which the “shrunken log2 fold change” value turned out to be 1.23.

On to RRIRDRPPRLPRPRPRPSAWPRP, for which the “shrunken log2 fold change” value was found to be 0.123.

Regarding RRIRSRPPRLPRPRPRPVIFPRP, the “shrunken log2 fold change” value is -0.335.

With RRIRPRPPRLPRPRPRPADVPRP, the “shrunken log2 fold change” value came to 0.0118.

Take RRIRKRPPRLPRPRPRPNDSPRP: the “shrunken log2 fold change” value is -0.042.

On to RRIRTRPPRLPRPRPRPDEHPRP, for which the “shrunken log2 fold change” value was -0.0955.

Turning to RRIRRRPPRLPRPRPRPGIMPRP, the “shrunken log2 fold change” value worked out at 0.156.

Consider RRIRFRPPRLPRPRPRPMDMPRP, for which the “shrunken log2 fold change” value stood at 0.0169.

With RRIRARPPRLPRPRPRPSVFPRP, the “shrunken log2 fold change” value is 0.461.

With RRIRHRPPRLPRPRPRPRCNPRP, the “shrunken log2 fold change” value is -0.331.

Turning to RRIRERPPRLPRPRPRPRELPRP, the “shrunken log2 fold change” value is 0.569.

Turning to RRIRVRPPRLPRPRPRPQQMPRP, the “shrunken log2 fold change” value was 0.0393.

Take RRIRGRPPRLPRPRPRPEMNPRP: the “shrunken log2 fold change” value amounted to 0.999.

In the case of RRIRVRPPRLPRPRPRPWDLPRP, the “shrunken log2 fold change” value worked out at 0.146.

Take RRIRKRPPRLPRPRPRPLCQPRP: the “shrunken log2 fold change” value came out at 0.206.

As for RRIRCRPPRLPRPRPRPASKPRP, the “shrunken log2 fold change” value was -0.438.

Turning to RRIRTRPPRLPRPRPRPAVMPRP, the “shrunken log2 fold change” value stood at 0.06.

For RRIRNRPPRLPRPRPRPREFPRP, the “shrunken log2 fold change” value came out at 0.306.

As to RRIRTRPPRLPRPRPRPLNTPRP, the “shrunken log2 fold change” value was -0.602.

With RRIRPRPPRLPRPRPRPENRPRP, the “shrunken log2 fold change” value is 0.0972.

As to RRIRLRPPRLPRPRPRPCLWPRP, the “shrunken log2 fold change” value is -0.000705.

For the sequence RRIRQRPPRLPRPRPRPSFYPRP, the “shrunken log2 fold change” value is -0.653.

As to RRIRGRPPRLPRPRPRPWETPRP, the “shrunken log2 fold change” value came out at 0.272.

For RRIRVRPPRLPRPRPRPLRYPRP, the “shrunken log2 fold change” value was -0.142.

RRIRHRPPRLPRPRPRPLSLPRP: the “shrunken log2 fold change” value is -0.492.

Source of the values: the supplement of paper PMC9112550, “Optimization of the antimicrobial peptide Bac7 by deep mutational scanning” (BMC Biology, 2022).
